Assay: yeast display, Sf9 membrane polyspecificity reagent, FACS + sequencing; frameworks hold sequencing errors
Summary of the method: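 Galactose induction of a Saccharomyces cerevisiae BJ5465 synthetic nanobody display library ran 36–48 hours. The cells were then stained for 1 hour at 4 °C with 10% biotinylated, detergent-solubilized Sf9 membrane reagent, pulled down on streptavidin microbeads and FACS-sorted into low and high (top ~1%) gates on expression and reagent-binding fluorescence. Labels for polyreactivity follow the gate of origin.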

| Sequence | polyreactivity (PSR sort gate) |
| --- | --- |
| QVQLVESGGGLVQAGGSLRLSCAASGSIFWYNAMGWYRQAPGKERELVAAINWSGGSTFYADSVKGRFTISRDNAKNTVFLQMNSLKPEDTAVYYCAADDWYTGYDYWGHGTQVTVSS | high polyreactivity |
| QVQLVESGGGLVQAGGSLRLSCAASGSIFWYNAMGWYRQAPGKERELVARISSSGDSTYYADSVKGRFTISRDNAKNTVYLQINSLKPEDTAVYYCNVDYWSISESSWGYYTSYDYWGQGTQVTVSS | high polyreactivity |
| QVQLVESGGGLVQAGGSLRLSCAASGSIFWYYAMGWYRQAPGKERELVAAISISGSTYYADSVKGRFTISRDNAKNTVYLQMNSLKPEDTAVYYCAARKFFWRSNYDYWGQGTQVNVSS | low polyreactivity |
| QVQLVESGGGLVQAGGSLRLSCAASGSIFWYYDMGWYRQAPGKERELVATISRTGRTYYADSVKGRFTISRDNAKNTVYLQMNSLKPEDTAVYYCAAVPRGWFSYPSGYDYWGQGTQVTVSS | high polyreactivity |
| QVQLVESGGGLVQAGGSLRLSCAASGSIFWYYGMGWYRPAPAKERELVAAISSGGSTNYADSVKGRFAISRDNAKNTVYIQMNSLKPEDTAVYYCAVRFTFPRYPASYSRYYYWGQGTQVTVSS | high polyreactivity |
| QVQLVESGGGLVQAGGSLRLSCAASGSIFWYYGMGWYRQAPGKERELVAAISSGGSTNYADSVKGRFAISRDNAKNTVYLQMNRLKPEDTAVYYCATKGYLWGQGTQVTVSS | high polyreactivity |
| QVQLVESGGGLVQAGGSLRLSCAASGSIFWYYVMGWYRPAPGKERELVAAISNVSTYYADSVKGRFTISRDNAKNTVYLQMNSLKPEDTAVYYCAARGLLWYYSWRYYYWGQGTQVTVSS | low polyreactivity |
| QVQLVESGGGLVQAGGSLRLSCAASGSIFYANDMGWYRQAPGKERELVADITSDSTYYADSVKGRFTISRDNAKNTVYLQMNSLKPEDTAVYYCAADVYGVHAPQSDYWTKYDYWGQGTQVTVSS | low polyreactivity |
| QVQLVESGGGLVQAGGSLRLSCAASGSIFYAYAMGWYRQAPGKEREFVAVISYSGGSTYYADSVKGRFTISRDNAKNTVYLQMYSLKPEDTAVYYCAARYRRPYSYYYWGQGTQVTVSS | high polyreactivity |
| QVQLVESGGGLVQAGGSLRLSCAASGSIFYAYGMGWYRQAPGKERELVAAISSRGGSTHYADSVKGRFTISRDNAKNTVYLQMNSLKPEDTAVYYCAARHAYPYRRGDFNYWGQGTQVTVSS | high polyreactivity |
| QVQLVESGGGLVQAGGSLRLSCAASGSIFYAYVMGWYRQAPGKERELVAAIDIGGGTYADSVKGRFTISRDNAKNTVYLQMNMLKPEDTAVYYCAKAGYFSRGVYVYYLDEYDYWGQGSQVTVSS | high polyreactivity |
| QVQLVESGGGLVQAGGSLRLSCAASGSIFYDNALGWYRQAPGKERELVAAIDDSDRTYYADSVKGRFTISRDNAKNTVYLQMNSLKPEDTAVYYCARDRWKWHYGYDYWGQGTQVTVSS | low polyreactivity |
| QVQLVESGGGLVQAGGSLRLSCAASGSIFYDNAMGWYRQAPGKERELVAAISGNDATTYYADSVKGRFTISRDNAKNTVYLQMNSLKPEDTAVYSCAADYVLNPWRTRYDYWGQGTQVTVSS | low polyreactivity |
| QVQLVESGGGLVQAGGSLRLSCAASGSIFYDNAMGWYRQAPGKERELVASIRWSGDSTYYADSVKGRFTISRDNAKNTVYLQMNSLKPEDTAVYYCAADPVEPYFTAIAYDFWGQGTQVTVSS | low polyreactivity |
| QVQLVESGGGLVQAGGSLRLSCAASGSIFYDYAMGWYRQAPGKERELVAAISSSGSSTYYADSVKGRFTISRDNAKNTVYLQMNSLKPEDTAVYYCAAYSRRQWKYDYWGQGTQVTVSS | high polyreactivity |
| QVQLVESGGGLVQAGGSLRLSCAASGSIFYDYAMGWYSQEPGKERELVAAISSSGITYYADSVKGRFTISRDNAKTTVYLQMNSLKPEDTAVYYCNARSYLRDYDYWGQGTQVTVTS | high polyreactivity |

| Sequence | polyreactivity (PSR sort gate) |
| --- | --- |
| QVQLVESGGGLVQAGGSLRLSCAASGSIFYDYTMGWSRQAPGKERELVAAINSGGSTNYADSVKGRFTISRDNAKNTVYLQMNSLKPEDTAVYYCAAEPQFAFLDSRLWGSDYWGQGTQVTVSS | low polyreactivity |
| QVQLVESGGGLVQAGGSLRLSCAASGSIFYENAMGWYRQAPGKERELVAAISRSGGSTYYADSVKGRFTISRDNAKNSVYLQMNSLKPEDTAVYYCAADVYVFIGDYWGQGTQVTVSS | low polyreactivity |
| QVQLVESGGGLVQAGGSLRLSCAASGSIFYENVMGWYRQAPGKERELVAGISRSGGRTYYADSVKGRFTISRDNAKNTVYLQMNSLKPEDTAVYYCNAARVYLSEWGQGTQVTVSS | high polyreactivity |
| QVQLVESGGGLVQAGGSLRLSCAASGSIFYFNAMGWYRQAPGKDRELVAAITYNGGSTRYADSVKGRFTISRDNAKNTVYLQMNSLKPEDTAVYYCAARAKYGPEDGYWGQGTQVTVSS | high polyreactivity |
| QVQLVESGGGLVQAGGSLRLSCAASGSIFYFNAMGWYRQAPGKERELVAAINWRGDRTYYADSVKRRFTISRDNAKNTVYLQMNSLKPEDTAVYYCNAVRVHAYSTGEYGYWGQGTQVTVSS | high polyreactivity |
| QVQLVESGGGLVQAGGSLRLSCAASGSIFYFNAMGWYRQAPGKERELVAGISARGGSTYYADSVKGRFTISRDNAKNTVYLQMNSLKPEDTAVYYCAAYGTTRSRKRGFAWWGYDYWGQGTQVTVSS | low polyreactivity |
| QVQLVESGGGLVQAGGSLRLSCAASGSIFYFNAMGWYRQAPGKERELVARISGSSGRTYFADSVKGRFTISRDNAKNTVYLQMNSLKPEDTAVYYCAARYYTSATMDYWGQGTQVTVSS | high polyreactivity |
| QVQLVESGGGLVQAGGSLRLSCAASGSIFYFNAMGWYRRAPGKERELVAGISARGGSTYYADSVKGRFTISRDHAKNTVYIQMNSLKPEDTAGYYCAAYGTTRSRKRAFAWWGYDYWGQGTQVTVSS | low polyreactivity |
| QVQLVESGGGLVQAGGSLRLSCAASGSIFYFYAMGWYRQAPGKERELVAASRFTGGTTYYADSVKGRFTISRDNAKNTVYLQMNSLKPEDTAVYYCAKQTSYWSRGYDYWGQGTQVTVSS | low polyreactivity |
| QVQLVESGGGLVQAGGSLRLSCAASGSIFYFYAMGWYRQAPGKERELVATITRGGSTYYADSVKGRFTISRDNAKNTVYLQMNSLKPEDTAVYYCAADGWYWTYIVEYWGQGTQVTVSS | high polyreactivity |
| QVQLVESGGGLVQAGGSLRLSCAASGSIFYFYAMGWYRQAPGKERELVATITRRTGRTYYADSVKGRFTISRDNAKNTVYLQMNSLKPEDTAVYYCAARPKGPYGVWYNYWGQGTQVTVSS | high polyreactivity |
| QVQLVESGGGLVQAGGSLRLSCAASGSIFYFYTMGWYRQAPGKEREFVAAINGIGGSTYYADSVKGRFTISRDNAKNTVYLQMNSLKPEDTAVYYCAADAPWFKRNARKYNFWGQGTQVTVSS | low polyreactivity |
| QVQLVESGGGLVQAGGSLRLSCAASGSIFYGNAMGRYRQAPGKERELVAGITGYGSPTYYADSVKGRFTISRDNAKNTVYLQMNSLKPEVTAVYYCARLTRTSRGMYDYWGQGTQVTVSS | high polyreactivity |
| QVQLVESGGGLVQAGGSLRLSCAASGSIFYGNAMGWDRQAPGNARELVAAISWNGGSTYYADSVKGRFTISRDNAKNTVYLQMNSLKPEDTAVYYSNADYYYEVDSWGQGTQVTVSS | low polyreactivity |
| QVQLVESGGGLVQAGGSLRLSCAASGSIFYGNAMGWYRQAPGKERELVAAITRRGGRTYYADSVKGRFTISRDNAKNTVYLQMNSLKPEDTAVYYCNKDVGVAVEMGYWGQGTQVTVSS | high polyreactivity |
| QVQLVESGGGLVQAGGSLRLSCAASGSIFYGNGMGWYRQAPGKERELVAVISVSGGRTFYADSVKGRFTISRDNAKNTVYLQMNSLKPEDTAVYYCATRTYRVDPEFGYWGQGTQVTVSS | high polyreactivity |

From the nanobody polyreactivity screen of Harvey et al. (2022)
